Source: patent publication US20030195154A1

Target: soluble human myeloproliferative leukemia (MPL) receptor (human) (UniProt P40238)
Experiment: BIAcore competition: test protein preincubated with 5 nM MPL receptor, passed over Fc-TMP on protein G chip
Set-up: unit not given here

Sequence of UniProt P40238 (P40238 26-491 limits assumed): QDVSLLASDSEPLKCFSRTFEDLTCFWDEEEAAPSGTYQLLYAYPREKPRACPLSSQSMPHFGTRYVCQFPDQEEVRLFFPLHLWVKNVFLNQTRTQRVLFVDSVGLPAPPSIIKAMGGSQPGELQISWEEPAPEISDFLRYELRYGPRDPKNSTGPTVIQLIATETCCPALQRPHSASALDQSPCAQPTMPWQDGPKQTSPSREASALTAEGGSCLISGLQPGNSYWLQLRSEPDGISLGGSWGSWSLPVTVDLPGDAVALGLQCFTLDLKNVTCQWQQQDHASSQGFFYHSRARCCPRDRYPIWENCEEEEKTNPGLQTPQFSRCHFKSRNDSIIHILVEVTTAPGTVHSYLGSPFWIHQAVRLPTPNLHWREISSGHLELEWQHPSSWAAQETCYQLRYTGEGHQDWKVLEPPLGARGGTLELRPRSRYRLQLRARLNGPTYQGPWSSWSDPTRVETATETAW

TMP sequence fused to the carboxy-terminus of human immunoglobulin Fc (Fc-TMP) (Fc fusion)
affinity: 3.28 to 5.37
